Assay results taken from patent US20230074735.

Target: Taq DNA polymerase (Thermus aquaticus) (UniProt P19821)
Assay: inhibition
Details: contains RNA cleavage site; about half amplicon yield; activity increased to some degree with 10 uM Pb2+; mechanism unclear, possibly stem recognition by polymerase

Sequence of Taq DNA polymerase (Thermus aquaticus) (P19821 whole entry): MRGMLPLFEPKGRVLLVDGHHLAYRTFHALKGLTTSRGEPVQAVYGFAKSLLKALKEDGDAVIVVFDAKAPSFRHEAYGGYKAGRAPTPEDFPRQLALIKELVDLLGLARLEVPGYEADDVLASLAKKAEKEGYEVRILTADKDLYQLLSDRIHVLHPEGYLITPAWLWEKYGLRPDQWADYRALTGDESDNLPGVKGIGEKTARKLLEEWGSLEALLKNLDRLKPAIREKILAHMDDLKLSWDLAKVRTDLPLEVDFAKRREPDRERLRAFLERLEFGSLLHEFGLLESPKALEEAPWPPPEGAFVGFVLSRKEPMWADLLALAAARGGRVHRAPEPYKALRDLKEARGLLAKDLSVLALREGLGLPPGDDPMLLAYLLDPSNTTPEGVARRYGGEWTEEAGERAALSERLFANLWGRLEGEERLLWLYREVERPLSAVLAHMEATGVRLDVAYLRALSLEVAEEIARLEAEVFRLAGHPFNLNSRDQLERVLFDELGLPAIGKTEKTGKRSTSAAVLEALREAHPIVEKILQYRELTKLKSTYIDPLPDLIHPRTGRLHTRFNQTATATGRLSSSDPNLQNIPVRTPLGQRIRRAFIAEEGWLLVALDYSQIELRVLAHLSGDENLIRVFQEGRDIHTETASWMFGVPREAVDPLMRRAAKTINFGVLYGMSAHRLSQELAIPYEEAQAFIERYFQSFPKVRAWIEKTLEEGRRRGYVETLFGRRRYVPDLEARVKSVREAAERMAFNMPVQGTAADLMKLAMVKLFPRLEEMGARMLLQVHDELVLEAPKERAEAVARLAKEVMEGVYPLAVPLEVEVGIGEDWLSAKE

GR5 DNAzyme (71 nt) gave an activity (% amplicon vs polymerase only) of 50.
